Data as given in patent CN111647076A (UNIV NANJING MEDICAL, dated 2020).

B1: 4A12噬菌体 (single-domain antibody 4A12 displayed on phage) (VHH)
VHH: EVQLLESGGGLVQPGGSLRLSCAASDFAFSSYEMSWVRQAPGKGLEWIGEIHHSGSTYYNPSLKSLVTISRDNSKNTLYLQMNSLRAEDTAVYYCVKDFGHLGQMASWGQGTLVTVSS
notes: also called 抗体4A12
B2: 4A10噬菌体 (single-domain antibody 4A10 displayed on phage) (VHH)
VHH: EVQLLESGGGLVQPGGSLRLSCAASSFDFSDYEMSWVRQAPGKGLEWIGEIHHSGSTYYNPSLKSRVTISRDNSKNTLYLQMNSLRAEDTATYYCVKDFVVGETAEFSYWGQGTLVTVSS
notes: also called 抗体4A10
B3: 4C5噬菌体 (single-domain antibody 4C5 displayed on phage) (VHH)
VHH: EVQLLESGGGLVQPGGSLRLSCAASDFYFADYEMSWVRQAPGKGLEWIGSIYHSGSTYYNPSLKSRVTISRDNSKNTLYLQMNSLRAEDTAMYYCAREWHSGYDYWGQGTLVTVSS
notes: also called 抗体4C5
B4: 4D5噬菌体 (single-domain antibody 4D5 displayed on phage) (VHH)
VHH: EVQLLESGGGLVQPGGSLRLSCAASSFDFSSYEMSWVRQAPGKALEWIGEIHHSGSTYYNPSLKSRVTISRDNSKNTLYLQMNSLRAEDTAMYYCVKDLGFADHWGQGTLVTVSS
notes: also called 抗体4D5
B5: 4A12-hFc重组蛋白 (Fc fusion)
chain: B1 VHH
B6: 4A10-hFc重组蛋白 (Fc fusion)
chain: B2 VHH
B7: 4C5-hFc重组蛋白 (Fc fusion)
chain: B3 VHH
B8: 4D5-hFc重组蛋白 (Fc fusion)
chain: B4 VHH

The binders below were run against T1, SARS-Cov-1-RBD-hFc (SARS-Cov-1, UniProt P59594 306-527) (assay: phage ELISA, antigen coated at 5 μg/ml, anti-M13-HRP).
T1 construct: domain: RBD

Row | Binder | binding result
1 | B1 | no binding
2 | B2 | no binding
3 | B3 | no binding
4 | B4 | no binding

Each binder was assayed against SARS-Cov-2 spike on lentiviral pseudovirus (SARS-Cov-2, UniProt P0DTC2 14-1273) (assay: cell-based or functional assay).

Row | Binder | IC50 of pseudovirus infection of ACE2-CHO cells (Luciferase活性)
5 | B5 | 0.19 µg/mL
6 | B6 | 0.66 µg/mL
7 | B7 | 2.32 µg/mL
8 | B8 | 1.13 µg/mL
